Experimental findings from publication PMC7057995, “Structural basis of RNA polymerase I pre-initiation complex formation and promoter melting” are described below.

For one series, the target named is CF with Rrn7 Δloop α7-α8 (Saccharomyces cerevisiae, UniProt P32786;P40992;Q04712 1-894;1-286+298-514;1-507, internal_change). As to the kind of experiment: EMSA; 0.2 pmol DNA; 0.25-1 pmol CF; binding not impaired; EMSA: 20 mM HEPES/KOH pH 7.8, 10% glycerol, 200 mM KCl, 1 mM MgCl2, 0.1 mg/ml BSA, 1 mM DTT, 30 min, temperature not stated; 6% native gel, 0.5x TBE. As to conditions: protein: recombinant; tags: His (Ni-NTA purified); copies: 1;1;1; label: NTS -3 Atto647N; TS -5 Cy3; blunt. Background: In EMSA bound probe runs differently from free probe, usually more slowly.

The target in another series is CF with Rrn7 Δα4a (Saccharomyces cerevisiae, UniProt P32786;P40992;Q04712 1-894;1-208+221-514;1-507, internal_change). Described as above. To be noted: protein: recombinant; tags: His (Ni-NTA purified); copies: 1;1;1; label: NTS -3 Atto647N; TS -5 Cy3; blunt.
In series [1] the target is RNA polymerase I;Rrn3;Core factor (CF) wild type: Rrn6/Rrn7/Rrn11;UAF … (Saccharomyces cerevisiae;Saccharomyces …, UniProt P10964;P22138;P07703;P46669;P50106;P20434;P20435;P28000;P20436;P32529;P22139;P40 …, |||||). As to the kind of experiment: size exclusion chromatography; complete early PIC, stable throughout SEC; EMSA: 20 mM HEPES/KOH pH 7.8, 10% glycerol, 200 mM KCl, 1 mM MgCl2, 0.1 mg/ml BSA, 1 mM DTT, 30 min, temperature not stated; 6% native gel, 0.5x TBE. (In general: SEC sorts molecules by how far they enter the pores of the column.)

CF with Rrn7 Δα4a, sequence (P32786 whole entry, stated change not applied, chain 1 of 3): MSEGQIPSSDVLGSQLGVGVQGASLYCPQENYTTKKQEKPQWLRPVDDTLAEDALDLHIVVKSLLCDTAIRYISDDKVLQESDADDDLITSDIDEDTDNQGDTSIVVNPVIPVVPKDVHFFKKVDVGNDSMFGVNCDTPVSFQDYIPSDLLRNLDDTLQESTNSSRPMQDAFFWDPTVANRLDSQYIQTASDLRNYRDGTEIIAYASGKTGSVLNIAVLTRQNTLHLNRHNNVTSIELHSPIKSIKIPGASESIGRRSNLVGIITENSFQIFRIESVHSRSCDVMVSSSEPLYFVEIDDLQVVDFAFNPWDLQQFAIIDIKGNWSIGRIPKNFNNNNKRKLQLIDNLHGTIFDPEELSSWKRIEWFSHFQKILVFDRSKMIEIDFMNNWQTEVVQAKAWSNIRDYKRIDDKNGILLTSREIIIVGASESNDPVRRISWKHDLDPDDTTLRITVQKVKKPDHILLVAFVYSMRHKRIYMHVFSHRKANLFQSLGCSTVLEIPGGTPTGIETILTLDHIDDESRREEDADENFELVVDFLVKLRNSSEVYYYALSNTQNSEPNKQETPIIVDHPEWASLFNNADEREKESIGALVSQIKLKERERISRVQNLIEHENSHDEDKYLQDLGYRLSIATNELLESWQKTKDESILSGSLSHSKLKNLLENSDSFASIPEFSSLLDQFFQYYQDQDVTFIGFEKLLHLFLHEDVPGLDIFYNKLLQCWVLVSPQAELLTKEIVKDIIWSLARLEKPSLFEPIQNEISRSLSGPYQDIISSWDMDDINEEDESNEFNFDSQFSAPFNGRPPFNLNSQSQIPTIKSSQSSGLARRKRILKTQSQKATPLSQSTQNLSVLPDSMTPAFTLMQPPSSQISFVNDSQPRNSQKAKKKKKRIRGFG
CF with Rrn7 Δα4a, sequence (P40992 other isoform, or with tags, fused parts or gaps | mutant, chain 2 of 3): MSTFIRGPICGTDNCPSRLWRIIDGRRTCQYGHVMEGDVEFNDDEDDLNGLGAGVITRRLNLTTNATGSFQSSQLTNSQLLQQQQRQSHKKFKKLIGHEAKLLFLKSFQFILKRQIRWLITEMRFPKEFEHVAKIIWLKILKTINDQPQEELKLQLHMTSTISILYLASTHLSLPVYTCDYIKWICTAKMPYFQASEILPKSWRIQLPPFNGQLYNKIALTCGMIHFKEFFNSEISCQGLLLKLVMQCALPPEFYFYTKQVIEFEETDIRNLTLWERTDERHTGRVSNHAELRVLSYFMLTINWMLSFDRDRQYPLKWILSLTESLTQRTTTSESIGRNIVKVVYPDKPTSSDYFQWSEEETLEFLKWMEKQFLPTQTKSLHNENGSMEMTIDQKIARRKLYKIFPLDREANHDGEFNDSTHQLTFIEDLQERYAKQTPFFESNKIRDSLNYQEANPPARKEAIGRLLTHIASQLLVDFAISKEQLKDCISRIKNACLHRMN
CF with Rrn7 Δα4a, sequence (Q04712 whole entry, stated change not applied, chain 3 of 3): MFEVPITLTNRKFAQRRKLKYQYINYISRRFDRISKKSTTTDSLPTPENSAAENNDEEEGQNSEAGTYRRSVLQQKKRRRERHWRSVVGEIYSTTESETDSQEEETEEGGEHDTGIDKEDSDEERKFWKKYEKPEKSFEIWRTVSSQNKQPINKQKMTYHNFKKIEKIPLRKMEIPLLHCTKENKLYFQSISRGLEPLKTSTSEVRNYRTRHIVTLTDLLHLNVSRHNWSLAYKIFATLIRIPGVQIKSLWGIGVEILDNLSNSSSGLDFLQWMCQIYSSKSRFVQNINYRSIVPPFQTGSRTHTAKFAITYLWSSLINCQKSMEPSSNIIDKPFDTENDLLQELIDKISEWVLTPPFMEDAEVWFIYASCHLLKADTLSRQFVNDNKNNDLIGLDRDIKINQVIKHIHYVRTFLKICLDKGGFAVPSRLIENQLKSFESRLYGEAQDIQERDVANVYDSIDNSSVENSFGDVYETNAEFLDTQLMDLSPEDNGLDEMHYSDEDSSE
CF with Rrn7 Δloop α7-α8, sequence (P32786 whole entry, stated change not applied, chain 1 of 3): as the sequence (P32786 whole entry, stated change not applied, chain 1 of 3) above
CF with Rrn7 Δloop α7-α8, sequence (P40992 other isoform, or with tags, fused parts or gaps | mutant, chain 2 of 3): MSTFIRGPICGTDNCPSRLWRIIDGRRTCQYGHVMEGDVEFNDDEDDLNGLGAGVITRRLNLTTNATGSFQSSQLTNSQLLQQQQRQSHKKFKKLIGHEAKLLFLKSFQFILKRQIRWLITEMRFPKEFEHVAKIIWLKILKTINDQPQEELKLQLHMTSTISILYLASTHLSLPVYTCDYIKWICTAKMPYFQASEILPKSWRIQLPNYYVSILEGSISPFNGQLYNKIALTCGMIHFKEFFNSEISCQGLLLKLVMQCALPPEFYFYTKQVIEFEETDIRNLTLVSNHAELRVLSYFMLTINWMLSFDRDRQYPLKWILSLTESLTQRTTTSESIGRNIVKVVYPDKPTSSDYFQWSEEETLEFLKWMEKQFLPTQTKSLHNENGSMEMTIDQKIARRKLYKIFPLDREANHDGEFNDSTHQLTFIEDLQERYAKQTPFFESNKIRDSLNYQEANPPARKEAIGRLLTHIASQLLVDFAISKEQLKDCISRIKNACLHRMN
CF with Rrn7 Δloop α7-α8, sequence (Q04712 whole entry, stated change not applied, chain 3 of 3): as the sequence (Q04712 whole entry, stated change not applied, chain 3 of 3) above

B1: rDNA promoter -83 to +26 (EMSA; ID 4691/4692) (dsDNA)
DNA 1: AAAAGTAAGATTTTAGTTTGTAATGGGAGGGGGAATTTAGTCATGGAGTACAAGTGTGAGGAAAAGTAGTTGGGAGGTACTTCATACCAAAGGGGTTCAACACAAGGGT
DNA 2: ACCCTTGTGTTGAACCCCTTTGGTATGAAGTACCTCCCAACTACTTTTCCTCACACTTGTACTCCATGACTAAATTCCCCCTCCCATTACAAACTAAAATCTTACTTTT
With B1, the binding result with CF with Rrn7 Δloop α7-α8 and in the series with CF with Rrn7 Δα4a was “binds” each time.

B2: rDNA promoter -155 to +8 (PIC scaffold; ID 4693/4694) (dsDNA)
DNA 1: AGCTTAAATTGAAGTTTTTCTCGGCGAGAAATACGTAGTTAAGGCAGAGCGACAGAGAGGGCAAAAGAAAATAAAAGTAAGATTTTAGTTTGTAATGGGAGGGGGGGTTTAGTCATGGAGTACAAGTGTGAGGAAAAGTAGTTGGGAGGTACTTCATGCGAAA
DNA 2: TTTCGCATGAAGTACCTCCCAACTACTTTTCCTCACACTTGTACTCCATGACTAAACCCCCCCTCCCATTACAAACTAAAATCTTACTTTTATTTTCTTTTGCCCTCTCTGTCGCTCTGCCTTAACTACGTATTTCTCGCCGAGAAAAACTTCAATTTAAGCT
Take B2: in series [1], the binding result is given as “binds”.
